Reference: publication PMC12401731

How the values were obtained:
[1] = target: HIV-1 RT p66 with TEV-cleavable N-terminal His tag (HTp66) (HIV-1); assay: cross-linking + other: mass photometry
[2] = target: HIV-1 RT p66 with TEV-cleavable N-terminal His tag (HTp66) (HIV-1); assay: mass photometry
[3] = target: HTp66 K259A (HIV-1); assay: mass photometry

Row | Substance | percent of the population as dimer [1] | percent dimer at 500 nM JLJ648 [2] | percent dimer at 500 nM JLJ648 [3]
1 | HIV-1 RT p66 with TEV-cleavable N-terminal His tag (HTp66) (enzyme) | 26% | 58% | –
2 | HTp66 K259A (enzyme) | – | – | 52%
